Data from the supplement of paper PMC12764529.
± gives the half width of the 95% confidence interval.

Key:
[1] = folding stability dG unfold from trypsin proteolysis; higher = more stable
Outline: (§1)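 How resistant each design was to proteolysis was captured as K50, inferred by Bayesian fitting of sequencing counts. Unfolding free energy was then derived relative to a sequence-predicted unfolded-state K50 and a shared folded-state K50, per protease or combined. Digestion used trypsin and chymotrypsin at 11 threefold-diluted concentrations plus a no-protease condition, on mini-proteins under 80 residues without cysteine in a PA-tagged cDNA display construct. Designs were kept only when AlphaFold2 dimer inter-PAE was above 15.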

[2] = folding stability dG unfold from chymotrypsin proteolysis; higher = more stable
Outline: as §1

[3] = folding stability dG unfold (combined trypsin and chymotrypsin); higher = more stable
Outline: as §1

Sequence	folding stability dG unfold [1]	folding stability dG unfold [2]	folding stability dG unfold [3]
SAGGSAGGGVYLNGLLPGGVALLSAPTASGEYTLILISPDNRALIFSYPADTGTPRVAEIDLPTSAGGSAGG [r6_159_TrMRF]	0.577 ± 0.062 kcal/mol	1.87 ± 0.065 kcal/mol	1.49 ± 0.11 kcal/mol
SAGGSAGGITPDDYFLIKLNAVVKLPNGDIVELKKDEVILAKADDVEILHADDIEIYPIGRDKLSAGGSAGG [r6_810_TrMRF]	0.23 ± 0.048 kcal/mol	-0.503 ± 0.29 kcal/mol	-0.0393 ± 0.22 kcal/mol
SAGGSAGGIWFMIKSAEDLKNLLNKWGWTIKDISVERWENDDGYVWIPIKIKPVPPPPPPEEDKSAGGSAGG [r6_981_TrROS]	2.36 ± 0.086 kcal/mol	3.77 ± 0.061 kcal/mol	3.06 ± 0.44 kcal/mol
SAGGSAGGIWIPVPDGYWIKIEMPDNNGEPKATHEMDSPADVEEALEEMPPDNLTKVEIWPLPDSAGGSAGG [r6_705_TrROS]	0.875 ± 0.16 kcal/mol	0.902 ± 0.21 kcal/mol	0.532 ± 0.71 kcal/mol
SAGGSAGGKEIKVIELPEEKVTIEVTITLEDGTVIKVTAVIDAETGEIVEITSVEIVPLPAEEKSAGGSAGG [r6_927_TrROS_Hall]	-0.122 ± 0.11 kcal/mol	1.88 ± 0.2 kcal/mol	1.36 ± 0.21 kcal/mol
SAGGSAGGKEPFTVDKVEATVPFPGADGTEGVVLVTLPNGEKRLIPASELPLENLQPDGTVSSASAGGSAGG [r6_609_TrMRF]	0.161 ± 0.034 kcal/mol	0.328 ± 0.037 kcal/mol	0.302 ± 0.11 kcal/mol
SAGGSAGGKIEIVFETPSGDIVPITYDPKTKKVDVTVRNKDGKPSEELKEKAIELAKKLIEELESAGGSAGG [r6_224_TrMRF]	0.29 ± 0.25 kcal/mol	1.05 ± 0.15 kcal/mol	0.519 ± 0.26 kcal/mol
SAGGSAGGKITLLDEEEIEEVAKELGIDPENIRVIKVENEIIAILSKAKPLTPEKLKEIVEKLKSAGGSAGG [r6_243_JUSTAS]	1.06 ± 0.021 kcal/mol	0.686 ± 0.029 kcal/mol	0.934 ± 0.055 kcal/mol
SAGGSAGGKKKIIKIKNKDGEYLIKVKTKDGKTVEFKKFKSLEEALKALPKEKIEKIEIIPLKKSAGGSAGG [r6_307_TrROS_Hall]	1.64 ± 0.085 kcal/mol	2.4 ± 0.1 kcal/mol	2.06 ± 0.42 kcal/mol
SAGGSAGGKKKTIVIKADSLEELKAALEALPEKVEVRLPNGETITLEVDGKKVEIKVISPEELKSAGGSAGG [r6_641_TrROS_Hall]	0.448 ± 0.039 kcal/mol	0.959 ± 0.048 kcal/mol	0.753 ± 0.14 kcal/mol
SAGGSAGGKKLTAEELAKKLKELIPDVEKVEIVSVDKKTKKVTIKVKTKKEKEKIKEALKELLKSAGGSAGG [r6_635_TrROS_Hall]	0.56 ± 0.064 kcal/mol	0.816 ± 0.048 kcal/mol	0.65 ± 0.1 kcal/mol
SAGGSAGGKKLYIVKIKIKNENGEEIEITLVFETEEQLKEALESLPIKNVKIEDVEIIPLEELKSAGGSAGG [r6_296_TrROS_Hall]	1.88 ± 0.051 kcal/mol	3.39 ± 0.098 kcal/mol	3 ± 0.063 kcal/mol
SAGGSAGGKKYEVVSTIKDPATGETITVIKKDGKLIITITNKNGETKTIEITVKPGETITITAPSAGGSAGG [r6_379_TrROS_Hall]	1.93 ± 0.077 kcal/mol	1.57 ± 0.026 kcal/mol	1.74 ± 0.057 kcal/mol
SAGGSAGGKLKIEITLEKVKNPETKEYYYRLRVTIYNENGKKIKEIEVVAKSKEEALEALKKLLSAGGSAGG [r6_974_TrROS_Hall]	4.98 ± 0.22 kcal/mol	5.24 ± 0.068 kcal/mol	5.2 ± 0.13 kcal/mol
SAGGSAGGKLKVRIEIYRKDPKTNKWTKVKTIEIEIEAESEEELLAAAKALAPPGYEVKVELLPSAGGSAGG [r6_623_TrROS_Hall]	4.26 ± 0.24 kcal/mol	5.23 ± 0.21 kcal/mol	5.15 ± 0.34 kcal/mol
SAGGSAGGKLVIGVFIPGLTPEQAEALVKLLEALGYPKENVTVVVFNVPALPPPGLEELLTKNGSAGGSAGG [r6_243_TrMRF]	1.77 ± 0.071 kcal/mol	2.75 ± 0.042 kcal/mol	2.45 ± 0.16 kcal/mol
SAGGSAGGKLVVLLVRRPDGSLALRVTDAENPAEALEAARRNGMEALPLEVDDLEEFLEAIGLGSAGGSAGG [r6_495_TrMRF]	0.875 ± 0.076 kcal/mol	2.65 ± 0.09 kcal/mol	2.17 ± 0.13 kcal/mol
SAGGSAGGKNNETRRDPNNGNTYTRTGGKWEMEPVPPPIEIVPWPIWDPNGQDLELMWRVSINLSAGGSAGG [r6_313_TrROS]	1.06 ± 0.2 kcal/mol	0.497 ± 0.49 kcal/mol	0.838 ± 0.33 kcal/mol
SAGGSAGGKPPKFKVEVFIFPESNSVLVKIELPNSTLPFFIDKNGKIKGIKIIGDKVFNVSEGLSAGGSAGG [r6_241_TrMRF]	1.42 ± 0.12 kcal/mol	2.17 ± 0.097 kcal/mol	1.96 ± 0.17 kcal/mol
SAGGSAGGKPPKPPKKVTITVTITFTLEDGKTVTVTAKITFLPDGTIKIEITYPDGSKLTLTFPSAGGSAGG [r6_109_TrROS_Hall]	3.75 ± 0.35 kcal/mol	4.81 ± 0.18 kcal/mol	4.59 ± 0.23 kcal/mol
SAGGSAGGKTLELEVEALDPITGEPYKVKIIYDPETGTATILVTHPNGKKSLFTVPAGEALKLLSAGGSAGG [r6_219_TrMRF]	2.63 ± 0.19 kcal/mol	3.456 ± 0.033 kcal/mol	3.28 ± 0.13 kcal/mol

Sequence	folding stability dG unfold [1]	folding stability dG unfold [2]	folding stability dG unfold [3]
SAGGSAGGKTLTIKLKDSTVTIELPSSISSISRIEVHSDGSLTLYHSSTGSTITLPIPPKIDNPSAGGSAGG [r6_369_TrMRF]	1.74 ± 0.058 kcal/mol	2.06 ± 0.035 kcal/mol	1.96 ± 0.051 kcal/mol
SAGGSAGGKVRINWNPNGWIRIKIETPGKKQEIPIPMDSPEDAKDFVDKLAKQFKVKIEEIEPYSAGGSAGG [r6_254_TrROS]	-0.179 ± 0.47 kcal/mol	0.166 ± 0.3 kcal/mol	0.194 ± 0.26 kcal/mol
SAGGSAGGLEDVIRALGLELLEREKIGEKIRILARDPNADRLYEVTVTLEGPPEIEITPLPPGLSAGGSAGG [r6_195_JUSTAS]	2.79 ± 0.052 kcal/mol	3.225 ± 0.022 kcal/mol	3.04 ± 0.037 kcal/mol
SAGGSAGGLIEEILKEIGLSPEEVVKVEVEPIEEKENSLTVRVTAEFLLPDGSKKKIEAEFEIGSAGGSAGG [r6_774_TrMRF]	1.1 ± 0.06 kcal/mol	1.13 ± 0.082 kcal/mol	1.21 ± 0.11 kcal/mol
SAGGSAGGLTLRLELEIRLEDGLTLRVRVEYDLETNEVKIEIELLPPAPPVEEEPEVLVVEEEESAGGSAGG [r6_926_TrROS_Hall]	3 ± 0.29 kcal/mol	4.28 ± 0.29 kcal/mol	3.78 ± 0.41 kcal/mol
SAGGSAGGLYIVRIEIYHPENGKEWTIMIPVPSEEEAKEEAEELAKTFAKKNGYKIEVEVFPLPSAGGSAGG [r6_787_TrROS]	1.53 ± 0.033 kcal/mol	2.5 ± 0.067 kcal/mol	2.11 ± 0.1 kcal/mol
SAGGSAGGMAKVKILKIKPVNTGEDGSKSVEIEVEFENPNPEVAKAFVEEIAKKLGFEEVEDTTSAGGSAGG [r6_317_TrMRF]	0.43 ± 0.079 kcal/mol	0.687 ± 0.15 kcal/mol	0.406 ± 0.28 kcal/mol
SAGGSAGGMDAEELAERIANHFQEHFPDMPIKVEVDPDHGWAKIEMRNPNNPGQKHEFEIPIDKSAGGSAGG [r6_478_TrROS]	0.311 ± 0.093 kcal/mol	1.29 ± 0.031 kcal/mol	0.912 ± 0.1 kcal/mol
SAGGSAGGMEEVLALLKELGLEVKSVDIKSPDKVIVYIKPKDEKKLEELKKAVPKSLVDEIGLESAGGSAGG [r6_84_JUSTAS]	-0.0936 ± 0.083 kcal/mol	0.455 ± 0.15 kcal/mol	0.275 ± 0.13 kcal/mol
SAGGSAGGMEIRVERDPESDLLVAELKIDGHDAIAVFDPNRPGHIEIGTTNEIPIEEIIDALLSSAGGSAGG [r6_195_TrMRF]	0.683 ± 0.038 kcal/mol	-0.08 ± 0.32 kcal/mol	0.152 ± 0.37 kcal/mol
SAGGSAGGMEVVERVVKLPDGTELRITIERDPEKDTAKVTITDPTTSETRTLDVTSEEEALELLSAGGSAGG [r6_465_JUSTAS]	2.31 ± 0.068 kcal/mol	1.56 ± 0.032 kcal/mol	1.93 ± 0.037 kcal/mol
SAGGSAGGMIEVYEEGDKLTVLNPGPDPNKKVTVTLDNGSATSSRIPEGTYVTTATVAPDATLKSAGGSAGG [r6_70_JUSTAS]	0.14 ± 0.028 kcal/mol	-1.06 ± 0.36 kcal/mol	-0.169 ± 0.099 kcal/mol
SAGGSAGGMIIQEVEEFKDKSEEEVKKKMLEELKKKYPKSYKVKITVTKNPSGKYTVTVTITPNSAGGSAGG [r6_964_JUSTAS]	2.19 ± 0.047 kcal/mol	2.65 ± 0.059 kcal/mol	2.51 ± 0.071 kcal/mol
SAGGSAGGMIIRVEFKNGEVKTFVVKSPEEAKKKLAESLGLKEDEIPLDEIKSVEILNLDEALSSAGGSAGG [r6_586_TrMRF]	3.35 ± 0.1 kcal/mol	4.1 ± 0.073 kcal/mol	3.91 ± 0.073 kcal/mol
SAGGSAGGMIKIKLKNGEVLYIDPKKPVLYFNKEKKIIPVKKDKIEKALKELEKKGFKIEKIDPSAGGSAGG [r6_337_TrMRF]	-0.249 ± 0.28 kcal/mol	-0.0347 ± 0.31 kcal/mol	0.0657 ± 0.15 kcal/mol
SAGGSAGGMIPLEEIEIEEITEETLPSNEKVITVKVKFPDGTKTLTFEPNEGEEKILEKIKELTSAGGSAGG [r6_233_JUSTAS]	0.544 ± 0.042 kcal/mol	0.727 ± 0.034 kcal/mol	0.734 ± 0.082 kcal/mol
SAGGSAGGMIRFDTPEEVEAALKALRAKLPPGATLVIEIEVDGKLVRVEFKDGKITKVEVRELPSAGGSAGG [r6_288_TrROS_Hall]	3.02 ± 0.16 kcal/mol	3.67 ± 0.12 kcal/mol	3.57 ± 0.2 kcal/mol
SAGGSAGGMITVNSEEEAKELEAELKEKGYKAEVTPKTGKNGPYYLITLTPIPKKKKSTKKSKLSAGGSAGG [r6_182_JUSTAS]	1.16 ± 0.095 kcal/mol	1.03 ± 0.11 kcal/mol	1.13 ± 0.21 kcal/mol
SAGGSAGGMKAVITQPPDGTATVEIYDETTGKTTTKTIPADQPEEIEALIAGKVDEVTTTPAPASAGGSAGG [r6_640_JUSTAS]	2.09 ± 0.12 kcal/mol	1.35 ± 0.1 kcal/mol	1.76 ± 0.095 kcal/mol
SAGGSAGGMKELAEKLGWEYEEKEEKLPSGKKILIATFTSPDGSKVIITFDPSTNKIISEEVFESAGGSAGG [r6_982_JUSTAS]	4.28 ± 0.4 kcal/mol	3.71 ± 0.23 kcal/mol	4.03 ± 0.25 kcal/mol
SAGGSAGGMKIEIIEEKDGYIVLRVSPEDLEALEKLGFEIVSVEEVEGELYIVIKVSPEALKALSAGGSAGG [r6_108_TrROS_Hall]	3.58 ± 0.095 kcal/mol	3.5 ± 0.037 kcal/mol	3.55 ± 0.066 kcal/mol
